± gives the standard deviation of the averaged measurements.
test system: ATP; assay: switch fluorescence ratio, 500 uM ATP over buffer (Cy3 cluster intensity, sum of 5 cycles each) (fold (ratio)); higher = stronger signal-on switching upon ATP binding; sequences stand for … in TCGTCGGCAGCGTCAGATGTGTATAAGAGACAGTTTTTTTTTTTTTTTTTTTTTTTTT…TC; settings: aptamer strand: ATP DNA aptamer (quencher-CACCTGGGGGAGTATTGCGGAGGAAGG + anchor), 100 nM annealed; ATP concentration: 500 uM
How it was run: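 Exposure to 500 uM ATP lasted 15 min at 22 °C before imaging, and a selection-buffer image was taken beforehand, for Cy3-labelled switching-strand clusters on a modified Illumina MiSeq flow-cell annealed to 100 nM quencher-labelled ATP aptamer. Five buffer/ATP cycles were run with NaOH stripping and re-annealing between them. The fluorescence ratio per cluster is summed target-cycle over summed buffer-cycle Cy3 intensity, averaged per switch-domain sequence. Clusters outside 100-1000 RFU were excluded.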

Point of comparison: ACCTTGTGCA, switch fluorescence ratio 1.02 ± 0.04. Against it:
- ACCTCCAACT — higher, 1.179 ± 0.0092
- ACCTGAATTA — within error, 1 ± 0.035
- ACCTGATAGT — within error, 1.044 ± 0.0066
- ACCTGCAATT — higher, 2.96 ± 0.044
- ACCTGGAATT — within error, 1.01 ± 0.031
- ACCTGGGGGA — within error, 1.07 ± 0.11
- ACCTGGTCTC — within error, 1.07 ± 0.027
- ACCTGTATGG — within error, 1.03 ± 0.044
- ACCTGTGGGG — within error, 1 ± 0.027
- ACCTTGAATT — within error, 1 ± 0.0029
- ACCTTGATGG — within error, 0.976 ± 0.077
- ACCTTGGGAA — within error, 1.01 ± 0.017
- ACCTTTAACT — within error, 1.03 ± 0.017
- ACCTTTGGGC — within error, 0.996 ± 0.039
- ACCTTTGTTT — within error, 1.001 ± 0.0054
- ACCTTTTACG — higher, 1.15 ± 0.072
- ACCTTTTGTA — within error, 1 ± 0.032
- ACGAAAATTA — within error, 1.12 ± 0.14
- ACGAAAGGTG — higher, 1.58 ± 0.072
- ACGAACTTGA — higher, 1.19 ± 0.055
- ACGAATCCTT — within error, 1.04 ± 0.013
- ACGAATGCGG — within error, 0.941 ± 0.042
- ACGAATTTGT — within error, 1.03 ± 0.038
- ACGAGACAGC — higher, 1.191 ± 3.6e-05
- ACGAGAGTTG — within error, 0.975 ± 0.021
- ACGAGCGATT — higher, 1.7 ± 0.058
- ACGAGCTAGG — higher, 1.13 ± 0.026
- ACGAGGGGAG — the same, 1.02 ± 0.016
- ACGAGGGGCG — within error, 1 ± 0.045
- ACGAGGTTAA — within error, 1.01 ± 0.018
- ACGAGGTTGT — within error, 0.982 ± 0.025
- ACGAGTACGG — higher, 1.1 ± 0.025
- ACGAGTTAGG — within error, 1.044 ± 0.0014
- ACGATAATTT — higher, 1.18 ± 0.035
- ACGATCTGTG — within error, 1.03 ± 0.033
- ACGATCTGTT — the same, 1.0155 ± 0.00017
- ACGATGGCCT — within error, 1 ± 0.014
- ACGATGGGCA — within error, 1.05 ± 0.015
- ACGATGTGTT — within error, 1.01 ± 0.025
- ACGATTTATC — within error, 1.01 ± 0.016
- ACGATTTTGC — within error, 1.04 ± 0.033
- ACGATTTTTT — within error, 0.993 ± 0.013
- ACGCATGGGT — within error, 1.04 ± 0.028
- ACGCATTCAT — higher, 1.14 ± 0.027
- ACGCCCGAAC — higher, 1.452 ± 0.013
- ACGCCCGGGT — within error, 1.08 ± 0.051
- ACGCCTTATT — within error, 1.03 ± 0.02
- ACGCGAGTAT — within error, 1.05 ± 0.019
- ACGCGCGTGT — the same, 1.02 ± 0.017
- ACGCGGAGTG — the same, 1.02 ± 0.016
- ACGCGGATTG — within error, 1.002 ± 0.0017
- ACGCGGTA — the same, 1.02 ± 0.058
- ACGCGGTGAC — higher, 1.09 ± 0.025
- ACGCGTGAAG — within error, 1.03 ± 0.021
- ACGCTCAGGT — higher, 1.29 ± 0.041
- ACGCTCCAGC — within error, 1.056 ± 0.0053
- ACGCTGCTAC — higher, 4.48 ± 0.3
- ACGCTTTATG — within error, 1.03 ± 0.04
- ACGCTTTTTT — within error, 1.01 ± 0.024
- ACGGAAAACG — the same, 1.023 ± 0.0093
- ACGGAAGGGC — within error, 1.11 ± 0.059
- ACGGAGGGAA — within error, 1.07 ± 0.085
- ACGGCAAAGG — higher, 1.155 ± 0.0063
- ACGGCTCAGA — within error, 1.013 ± 0.0079
- ACGGCTTTTG — the same, 1.025 ± 0.009
- ACGGGAAAGT — within error, 1.06 ± 0.089
- ACGGGAGAGG — the same, 1.02 ± 0.035
- ACGGGAGTGG — within error, 0.998 ± 0.011
- ACGGGATTTG — within error, 0.9822 ± 0.0073
- ACGGGATTTT — within error, 1.03 ± 0.026
- ACGGGCCCGA — the same, 1.02 ± 0.029
- ACGGGGAAAA — within error, 1.03 ± 0.036
- ACGGGGAAAG — within error, 0.9916 ± 0.0019
- ACGGGGACTG — higher, 1.0927 ± 0.00086
- ACGGGGATCA — within error, 0.981 ± 0.045
- ACGGGGATTT — within error, 1.01 ± 0.019
- ACGGGGCCGC — within error, 0.994 ± 0.045
- ACGGGGCTGG — the same, 1.02 ± 0.048
- ACGGGGCTGT — within error, 0.996 ± 0.017
- ACGGGGGACA — the same, 1.02 ± 0.035
- ACGGGGGAGA — within error, 1.24 ± 0.35
- ACGGGGGGTA — the same, 1.02 ± 0.035
- ACGGGGGTTG — within error, 1.03 ± 0.06
- ACGGGGGTTT — within error, 0.997 ± 0.015
- ACGGGGTAGT — the same, 1.02 ± 0.024
- ACGGGGTCGG — within error, 1.01 ± 0.044
- ACGGGGTGCG — within error, 0.986 ± 0.032
- ACGGGGTTCT — within error, 0.965 ± 0.032
- ACGGGTAATG — within error, 1.01 ± 0.035
- ACGGGTTTTG — within error, 1.03 ± 0.024
- ACGGTAAACT — higher, 1.18 ± 0.065
- ACGGTAACGC — the same, 1.02 ± 0.011
- ACGGTAAGGA — higher, 1.098 ± 0.0091
- ACGGTAGTTG — within error, 0.9851 ± 0.009
- ACGGTATGGG — within error, 1.07 ± 0.046
- ACGGTCGCGT — within error, 1 ± 0.012
- ACGGTCTCGG — within error, 1.01 ± 0.025
- ACGGTGAGGT — the same, 1.02 ± 0.016
- ACGGTGGAGA — within error, 1.05 ± 0.015

From the supplement of paper PMC10126150
